Measurements reported in patent publication US20150232510A1.

Target: Recombinant Human DPPIV/CD26 (R&D Systems, Inc.) (human) (UniProt P27487)
Experiment: cell-based or functional assay

Chain of UniProt P27487 (P27487 29-766 limits assumed): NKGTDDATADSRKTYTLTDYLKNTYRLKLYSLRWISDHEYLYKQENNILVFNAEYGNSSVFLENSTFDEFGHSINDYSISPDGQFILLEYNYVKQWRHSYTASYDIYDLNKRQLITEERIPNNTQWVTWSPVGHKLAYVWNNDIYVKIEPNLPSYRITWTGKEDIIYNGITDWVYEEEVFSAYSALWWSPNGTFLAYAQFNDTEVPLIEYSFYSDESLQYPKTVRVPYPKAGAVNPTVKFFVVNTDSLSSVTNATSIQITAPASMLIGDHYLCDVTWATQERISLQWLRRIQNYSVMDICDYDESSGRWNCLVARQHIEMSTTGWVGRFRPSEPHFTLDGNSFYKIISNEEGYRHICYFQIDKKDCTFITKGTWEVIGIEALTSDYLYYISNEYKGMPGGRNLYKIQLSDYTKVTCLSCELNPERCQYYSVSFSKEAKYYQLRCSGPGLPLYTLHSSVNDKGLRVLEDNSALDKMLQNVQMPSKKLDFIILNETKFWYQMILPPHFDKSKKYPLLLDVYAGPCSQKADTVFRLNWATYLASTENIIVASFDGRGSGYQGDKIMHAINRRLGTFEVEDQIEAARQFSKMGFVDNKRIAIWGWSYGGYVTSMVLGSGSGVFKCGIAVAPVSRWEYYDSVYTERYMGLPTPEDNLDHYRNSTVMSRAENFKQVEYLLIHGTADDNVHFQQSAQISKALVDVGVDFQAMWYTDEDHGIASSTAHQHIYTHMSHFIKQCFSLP

DPP-4 inhibiting activity IC50(µg/ml) [µg/mL] | concentration for 50% inhibition of the enzymatic activity (dipeptidyl peptidase-IV inhibiting ability of HPLC Fraction 2) [µg/mL] | Substance
1340 |  | Ile-Pro-Pro (peptide)
486 |  | LY (peptide)
1.9 | 2 | Val-Pro-Ala (peptide)
5.7 |  | Val-Pro-Asn (peptide)
2.6 |  | Val-Pro-Gln (peptide)
3.4 |  | Val-Pro-Gly (peptide)
10.4 |  | Val-Pro-Lys (peptide)
> 2000 |  | Val-Pro-Pro (peptide)
5.17 |  | Val-Pro-Ser (peptide)
7.15 |  | Val-Pro-Tyr (peptide)
1 |  | Val-Pro-Val (peptide)

Target: Angiotensin Converting Enzyme, from rabbit lung (SIGMA) (rabbit) (UniProt P12822)
Experiment: cell-based or functional assay

Chain of UniProt P12822 (P12822 34-1310 limits assumed): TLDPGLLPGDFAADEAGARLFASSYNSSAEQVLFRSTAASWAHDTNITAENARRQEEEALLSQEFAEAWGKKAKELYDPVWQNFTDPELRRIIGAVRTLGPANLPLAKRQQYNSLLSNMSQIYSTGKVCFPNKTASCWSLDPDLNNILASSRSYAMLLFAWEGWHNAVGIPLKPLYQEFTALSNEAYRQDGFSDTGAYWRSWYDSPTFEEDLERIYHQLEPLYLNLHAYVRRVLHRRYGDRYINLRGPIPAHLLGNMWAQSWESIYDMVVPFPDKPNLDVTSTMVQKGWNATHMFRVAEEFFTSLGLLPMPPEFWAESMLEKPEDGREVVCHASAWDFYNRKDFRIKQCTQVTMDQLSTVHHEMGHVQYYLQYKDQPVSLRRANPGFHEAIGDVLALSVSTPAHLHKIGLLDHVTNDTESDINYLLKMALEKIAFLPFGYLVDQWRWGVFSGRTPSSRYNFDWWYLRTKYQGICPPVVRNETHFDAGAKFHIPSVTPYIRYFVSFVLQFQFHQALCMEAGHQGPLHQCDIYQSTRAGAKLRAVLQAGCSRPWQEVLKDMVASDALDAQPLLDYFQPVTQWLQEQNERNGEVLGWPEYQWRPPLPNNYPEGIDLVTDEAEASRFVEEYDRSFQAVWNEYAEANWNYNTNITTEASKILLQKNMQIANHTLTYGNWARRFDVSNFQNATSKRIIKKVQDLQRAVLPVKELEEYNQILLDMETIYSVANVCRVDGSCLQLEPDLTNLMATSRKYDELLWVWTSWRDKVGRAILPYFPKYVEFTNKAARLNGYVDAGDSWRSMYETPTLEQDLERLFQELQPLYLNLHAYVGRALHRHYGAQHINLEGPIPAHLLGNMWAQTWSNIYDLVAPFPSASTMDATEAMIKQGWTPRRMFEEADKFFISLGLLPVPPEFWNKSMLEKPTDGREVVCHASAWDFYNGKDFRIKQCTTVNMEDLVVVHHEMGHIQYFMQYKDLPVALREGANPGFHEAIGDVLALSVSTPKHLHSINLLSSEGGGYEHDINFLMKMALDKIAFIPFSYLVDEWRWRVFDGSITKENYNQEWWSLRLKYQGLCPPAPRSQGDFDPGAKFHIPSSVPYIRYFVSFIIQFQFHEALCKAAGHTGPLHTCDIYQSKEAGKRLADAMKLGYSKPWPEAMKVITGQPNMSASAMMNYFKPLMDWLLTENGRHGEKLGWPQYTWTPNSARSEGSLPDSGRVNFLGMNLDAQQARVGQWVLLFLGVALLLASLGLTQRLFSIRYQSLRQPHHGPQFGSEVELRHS

ACE inhibiting activity, 50% inhibition concentration [µg/mL] | Substance
24.8 | Val-Pro-Ala (peptide)
132 | Val-Pro-Lys (peptide)
